Assay results: US20050267020A1, “Polypeptides derived from inducible hsp70 and pharmaceutical compositions containing the same” (priority 2001, published 2005)

Assays:
HLA-B*0702 = target: T1, HLA-B*0702 (Homo sapiens, UniProt P01889); test: Measurement of peptide relative affinity to HLA-B*0702; type: binding; settings: for Relative affinity: towards HLA-B*0702 molecule, lower = stronger binding
T1 construct: expressed in transfected cells; host or cells: T2-B7 cells (Tap-/-)
Description: Measurement of Peptide Relative Affinity to HLA class I. Tap−/− cells expressing the studied HLA-class I molecule (3×10^5 cells/mL) were incubated with various concentrations of peptides ranging from 100 μM to 0.1 μM in serum-free RPMI 1640 medium supplemented with 100 ng/ml of human β-2m at 37° C. for 16 hours. Cells were then washed twice and stained with the specific anti-class I mAb followed by FITC conjugated goat anti mouse Ig mAb to quantify the expression of HLA-A*0201. For each peptide concentration, the HLA-specific staining was calculated as the % of the staining obtained with 100 μM of the reference peptide. The relative affinity (RA) is determined as: RA=(Concentration of each peptide that induces 20% of HLA expression/Concentration of the reference peptide that induces 20% of HLA expression). The lower the RA-value, the stronger is the peptide binding to HLA. The mean RA value for each peptide is determined from at least three independent experiments.
For the study of Relative Affinity to HLA-A*0201, Tap−/− HLA-A*0201 T2 cells, the HLA-A*0201 specific mAb BB7.2 and the reference HLA-A*0201-binding peptide HIVpol 589 (IVGAETFYV) were used. For the study of Relative Affinity to HLA-A*0301, Tap−/− HLA-A*0301 T2-A3 cells are used. For the study of Relative Affinity to HLA-B*0701, Tap−/− HLA-B*0701 T2-B7 cells are used.
High affinity peptide discovery was also lead for the MHC molecule HLA-B*0702. 11 peptides presenting the primary anchor motif for HLA-B*0702 or predicted to show a high affinity by the computerized program BIMAS were tested for their Relative Affinity.

[1] = tested on: COS cells transfected with both Hsp70 and HHD expression vectors; test: Peptide processing assay on COS-transfected cells, TNF-α secretion by murine CTL; type: cell-based, simian
Description: After contact of murine CTL lines with transfected COS cell, CTL recognition of COS cells is expressed as CTL secretion of TNF-α dosed in supernatant (X Axis, TNF-α ranges from 0 to 500 pg/ml). The graphs represent TNF-α dosage by cytotoxic cell lines, respectively mCTL380, mCTL391 mCTL393 and mCTL134, after contact with COS cells. In each graph, upper to lower bars represent the different cells in contact with CTL, respectively: negative control (no COS cell), COS cells, COS cells transfected with Hsp70 expression plasmid, COS cells transfected with HHD expression plasmid, positive control (COS cells transfected with HHD and pulsed with the respective peptide), COS cells transfected with HHD and with Hsp70 expression plasmids.
Peptide Processing Assay on COS-Transfected Cells. 2.2×10^4 simian COS cells were plated in flat-bottom 96 well plates in DMEM 10% FCS, in quadruplicates for each condition. 18 hours later, the medium is discarded, and 100 ng of each DNA plasmid, encoding for Hsp70 and HLA class I molecules, is put in contact with COS cells in DMEM 10% Nuserum […] Chloroquine 10 mg/mL DEAE Dextran. After 4 hours of incubation at 37° C., transfection medium is discarded, and 50 μL PBS 10% DMSO is added for 2 minutes for integration of plasmids. It is then discarded and transfected COS cells are placed in DMEM 10% FCS for 40 hours. Transfected COS cells are then used with 5×10^4 murine CTL in a TNF-α secretion assay.
(§1) TNF-α Secretion Assay. Transfected COS cells on day 4 or 10^5 target tumor cells were plated in 50 μL RPMI 10% FCS and when necessary incubated with 10 μM peptide for 1 hour. In blocking experiments, anti-HLA class I antibody w6/32 or an irrelevant antibody were incubated with target cells for 1 h30. 5×10^4 T cells were then added in 50 μL RPMI 10% FCS and incubated for 6 hours. Each condition was tested in quadruplicates. 50 μL of the supernatant was collected. Standard dilutions were prepared in 50 μL with final doses of TNF-α (kindly provided by I. Apfler, Bender Wien, Austria) ranging from 10^4 to 0.08 pg/mL. On both the supernatants and the standards were added 50 μL of 3×10^4 TNF-α sensitive WEHI-164c13 cells. They were incubated for 16 hours at 37° C. (23). Inhibition of cell proliferation was evaluated by the MTT colorimetric method. Briefly, 50 μL of MTT at 2.5 mg/mL (Sigma-Aldrich) was added and incubated for 4 hours at 37° C. Cells were then lyzed with 100 μL of a pH4.7 33% N,N-dimethyl formamide (Sigma-Aldrich) 20% SDS solution in water. Two hours after cells lysis, OD was measured at 550 nm on a Dynatech MR5000 spectrophotometer. TNF-α quantitation was calculated by linear interpolation with the standard dilutions.

[2] = tested on: MCF-7 and SAOS tumor cell lines; test: Recognition by murine CTL of epitopes at the surface of human tumor cells, TNF-α secretion assay; type: cell-based; settings: HLA-A*0201+ Hsp70+ tumor cells
Description: CTL recognition of tumoral cells is expressed as CTL secretion of TNF-α dosed in supernatant (X Axis, TNF-α ranges from 0 to 1000 pg/ml) after contact with the cells. Upper to lower bars represent the different cells and reagents in contact with CTL, respectively: 2 negative controls (M113, M44), SAOS, MCF-7, MCF-7 blocked with anti-class I (w6/32) antibody before mixed culture, and MCF-7 blocked with an irrelevant antibody before mixed culture.
as §1
We studied whether the over-expression of Hsp70 described in certain tumor cell lines was high enough to enable these epitopes to be presented at the surface of tumor cells. We addressed this question with our already available high-avidity murine CTLs, hypothesizing that such a high CTL avidity enables the recognition of the highest-Hsp70 expressing human tumor cells. […]

HHD mice = test: Generation of CTL in HLA-A*0201 transgenic HHD mice (immunogenicity); type: in vivo, mouse
Description: Generation of CTL in HLA-transgenic mice. HLA-transgenic mice were injected subcutaneously at the base of the tail with 100 μg of peptide emulsified in incomplete Freund's adjuvant (IFA) in the presence of 140 μg of the I-A^b restricted HBVcore-derived T-helper epitope (128-140; sequence TPPAYRPPNAPIL). After 11 days, spleen cells (5×10^7 cells in 10 mL) were stimulated in vitro with peptide (10 μM). On day 6 of culture, the bulk responder populations were tested for specific cytotoxicity. Upon response, the CTL line was then weekly re-stimulated in vitro with 20×10^6 35Gy irradiated spleen cells in the presence of 1 to 0.1 μM peptide and 50 U/mL IL-2 (Proleukin, Chiron Corp.). Cytotoxicity was assayed 6 days after the last stimulation and TNF-α secretion 11-13 days after, with the addition of 50 U/mL IL-2 on day 7. HHD mice transgenic for HLA-A*0201 were used. B7B7 Kd mice and mice transgenic for HLA-A*0301 are used for the study of the HLA-B*0701 and HLA-A*0301 restricted peptides respectively.

human CD8+ cells = test: Generation of CTL from human PBMC with peptide- or polyepitope-pulsed dendritic cells, intracellular IFN-γ staining; type: cell-based; settings: CD8+ cells stimulated with peptide-loaded dendritic cells
Description: The three graphs entitled hCTL380, hCTL391 and hCTL393 represent respectively the testing of p380, p391 and p393-specific human CTLs. P391 and p393 specific CTLs were tested towards EBV-B cells, whereas p380 specific CTLs were tested towards T2 cells. The number of IFN-γ producing CD8+ cells for 10^5 CD8+ cells upon activation, indicated on the X-axis, was measured, as assessed by staining cells for CD8 and intracellular IFN-γ.
Polyepitope induced human CTL were tested for their capacity to respond to T2 cells loaded with p380, p391 or p393 or the irrelevant HIVpol589 peptides in intracellular IFN-γ staining. The X axis represents the number of IFNγ-producing CTL/10^5 CD8+ cells. On the Y axis, upper to lower bars represent the results obtained when cells were loaded respectively with irrelevant HIV pol589 peptides, or with p380, p391 or p393 peptides.
Generation of CTL from Human Peripheral Blood Mononuclear Cells (PBMC). Fresh PBMC collected from healthy donnors under informed consent were serologically typed for the studied HLA-class I molecule, and purified using standard Ficoll-Paque (Amersham Pharmacia Biotech AB). Dendritic cells (DC) were prepared by cultivating plastic adherent PBMC in the presence of 500 U/mL GM-CSF (R&D Systems Inc. MN) and 500 U/mL IL-4 (R&D Systems Inc. MN) for 7 days such as described in Keogh et al. (30).
DC were then maturated for 2 days with 2 μg/mL anti-CD40 antibody and 100 ng/mL Poly I:C (Sigma-Aldrich). […] Autologous CD8+ purified T-cells (CD8 MicroBeads, Miltneyi Biotec Inc. CA) were stimulated weekly with DC pulsed for two hours with peptide (10 μM) and irradiated at 35Gy at a T:DC ratio of 10:1 in culture medium (CM; RPMI 1640 supplemented with 10% human AB serum, […] L-glutamine and gentamycin). 1×10^3 U/mL IL-6 and SU/mL IL-12 (R&D Systems Inc. MN) were added during the first week of culture. 20 U/mL clinical grade IL-2 (Proleukin, Chiron Corp.) and 10 ng/mL IL-7 (R&D Systems Inc. MN) were added during the next two weeks of culture. 7 days after the last stimulation with DC, peptide specific IFN-γ secreting CD8+ T cells were magnetically sorted following encounter of the peptide presented by HLA-A*0201+ B-EBV cells (IFN-γ Secretion Assay, Miltenyi Biotec Inc. CA). The characterization of peptide-specific T cells was tested 7 days after the purification step.
Intracellular IFN-g Staining. 5×10^4 T cells were incubated with 10^5 stimulating peptide loaded EBV-B cells or with 10^5 tumor cells in the presence of 20 μg/ml brefeldin-A (Sigma, Oakville, Canada). Six hours later, they were washed, stained with r-phycoerythrin-conjugated anti-CD8 antibody (Caltag Laboratories, Burlingame, Calif.) in PBS for 25 min at 4° C., washed and fixed with 4% PFA. Then, cells were permeabilized with PBS 0.5% BSA 0.2% saponin (Sigma, Oakville, Canada), and stained with allophycocyanin-conjugated anti-IFNg mAb (PharMingen, Mississauga, Canada) for 25 min at 4° C. Cells were analyzed on FACSCalibur (Becton Dickinson, Mountain View, Calif.).

HLA-A*0201 [3] = target: T2, HLA-A*0201 (human); test: HLA-A*0201 stabilisation on T2 cells, flow cytometry with BB7.2; ratio to reference peptide HIVpol 589
T2 construct: MHC class I molecule on TAP-deficient T2 cells; stabilised at the surface by the added peptide and detected with mAb BB7.2
Description: For each peptide concentration, the HLA-specific staining was calculated as the % of the staining obtained with 100 μM of the reference peptide. […] The mean RA value for each peptide is determined from at least three independent experiments.

HLA-A*0201 [4] = target: T2, HLA-A*0201; test: decay of peptide-stabilised HLA-A*0201 on T2 cells after Brefeldin A, flow cytometry
Description: Assessment of Peptide/HLA class I Complex Stability. […] Cells were then washed four times to remove free peptide, incubated with Brefeldin A (10 μg/mL) for 1 hour to block cell surface expression of newly synthesized HLA molecules, washed and incubated at 37° C. for 0, 2, 4 or 6 hours. Subsequently, cells were stained with the HLA specific mAb followed by FITC conjugated goat anti mouse Ig mAb.

| Molecule | Relative affinity (HLA-B*0702) | Relative affinity (HLA-A*0201 [3]) | also measured |
| --- | --- | --- | --- |
| APLSLGLET [HSP 397] | >10 |  |  |
| DVAPLSLGL [HSP 395] | >10 |  |  |
| GPGPGGFGA [HSP 616] | >10 |  |  |
| IPTKQTQIF [HSP 420] | >10 |  |  |
| IPTKQTQIFT [HSP 420(10)] | >10 |  |  |
| LLDVAPLSL [HSP 393] |  |  | processing of the peptide: recognition of Hsp70 + HHD transfected COS cells by the specific murine CTL line [1]: are epitopes; presentation of the epitope at the surface of Hsp70 over-expressing human tumor cells [2]: epitope correctly presented at the surface of Hsp70 over-expressing tumors; induction of specific cytotoxic T cell immune response in HHD mice (HHD mice): capable of generating a specific cytotoxic T cell immune response; induction of specific human CTL (human CD8+ cells): capable of stimulating specific human CTL |
| QVCNPIISGL [HSP 601] | >10 |  |  |
| STRIPKVQKL [HSP 340] | >10 |  |  |
| YPEEISSMV [HSP 115] | >10 |  |  |
| YPEEISSMVL [HSP 115(10)] | >10 |  |  |
| YPVTNAVIT [HSP 137] | 1.2 |  | affinity for HLA-B*0702 (in words) (HLA-B*0702; Relative Affinity determination): high affinity |
| YPVTNAVITV [HSP 137(10)] | >10 |  |  |
| YLGYPVTNAV (also called HSPI34(10)) [HSP 134(10) (YLGYPVTNAV)] |  | 0.6 |  |
| YLGYPVTNA [HSP 134 (YLGYPVTNA)] |  | 2.5 |  |
| LLLLDVAPL [HSP 391 (LLLLDVAPL)] |  | 0.5 | Stability (hrs) (DC50, half life of the HLA-A*0201/peptide complex) (HLA-A*0201 [4]): > 6 h |
| LMGDKSENV [HSP 380 (LMGDKSENV)] |  | 2.5 | Stability (hrs) (DC50, half life of the HLA-A*0201/peptide complex) (HLA-A*0201 [4]): 4 h |
| SLFEGIDFYT [HSP 286 (SLFEGIDFYT)] |  | 0.25 | Stability (hrs) (DC50, half life of the HLA-A*0201/peptide complex) (HLA-A*0201 [4]): > 6 h |
| LLDVAPLSL [HSP 393 (LLDVAPLSL)] |  | 0.4 |  |
